{"source": "paper PMC10373554", "about": "(Journal of Virology, 2023)", "binders": {"B1": {"name": "S2H97 (antibody, V domains shown)", "VH": "QVRLVQSGAEVKKSGESLKISCKGSGYSFTSYWIGWVRQMPGKGLEWMGIIYPGDSDTRYSPSFQGQVTISADKSISTVYLQWSSLKASDTAMYYCARQWSHYTYDYYYWGQGTLVTISS", "VL": "QSVLTQPASVSGSPGQSITISCTGISSDVGGYNSVSWYQQHPGKAPKLMIYDVTNRPSGVSNRFSGSKSGNTASLTISGLQAEDEADYYCSSYTSSSTPPYVFGTGTKVSVL"}}, "target": "recombinant RBD protein of SARS-CoV (SARS-CoV (2003), strain of the bought …, UniProt P59594)", "experiment": "SPR", "data": [{"binder": "B1", "values": [{"measurement": "binding result", "result": "binds"}]}]}
